{"source": "patent US20080274954", "proteins": {"B1": {"name": "sh04009DH/PH protein (SEQ ID NO: 6) with FLAG-tag (3x) at the C-terminal (protein)", "chain": "MEELSENSSSTPSEEQDEEASQSRHRHCENKQQMRTNVIREIMDTERVYIKHLRDICEGYIRQCRKHTGMFTVAQLATIFGNIEDIYKFQRKFLKDLEKQYNKEEPHLSEIGSCFLQNQEGFAIYSEYCNNHPGACLELANLMKQGKYRHFFEACRLLQQMIDIAIDGFLLTPVQKICKYPLQLAELLKYTTQEHGDYSNIKAAYEAMKNVACLINERKRKLESIDKIARWQVSIVGWEGLDILDRSSELIHSGELTKITKQGKSQQRTFFLFDHQLVSCKKDLLRRDMLYYKGRLDMDEMELVDLGDGRDKDCNLSVKNAFKLVSRTTDEVYLFCAKKQEDKARWLQACADERRRVQEDKEMGMEISENQKKLAMLNAQKAGHGKSKGYNRCPVAPPHQGLHPIHQRHITMPTSVPQQQVFGLAEPKRKSSLFWHTFNRLTPFRK"}}, "target": "Cdc42 (SEQ ID NO: 12) expressed as an N-terminal 3x FLAG-tagged protein", "data": [{"protein": "B1", "values": [{"measurement": "effector pull-down assay: amount of active (GTP-bound) Cdc42 bound to the PAK-1 effector bead, Western blot with anti-FLAG antibody", "value": "In the cell lysate (lane 4 in FIG. 2) prepared from the cells in which the sh04009DH/PH protein was co-expressed with Cdc42, the band was detected more strongly that in the cell lysate (lane 2 in FIG. 2) prepared from the cells in which only Cdc42 was expressed"}]}]}
